In US20260209316A1 (US Dept. of Health and Human Services, published 2026):
Like-named read-outs stand apart in the source and are kept apart here.

B1: antibody 316L (antibody, V domains shown)
VH: EERLVESGGGLVQPGGSLRLSCAASGFTFGDYAMHWVRQVPGKSLEWLSGISWSGYTTYSADSVKGRFTISRDNAKNSLYLQMNRLRPEDTGLYYCVTLIGAIGIKDSLDVWGRGVLVTVSS
VL: QSVLTQPPSVSGAPGQRVTVSCSGSSSNIGAGNYVQWYQQLPGTAPKVLIYQTEKRPSGTSDRFSGSKSDTSASLTINGLQSEDEADYYCQVYDSNLNGWVFGGGTRLTVLG
notes: also called 316L mAb; mAb 316L
B2: antibody mAb114 (antibody, V domains shown)
VH: EVQLVESGGGLIQPGGSLRLSCAASGFALRMYDMHWVRQTIDKRLEWVSAVGPSGDTYYADSVKGRFAVSRENAKNSLSLQMNSLTAGDTAIYYCVRSDRGVAGLFDSWGQGILVTVSS
VL: DIQMTQSPSSLSASVGDRITITCRASQAFDNYVAWYQQRPGKVPKLLISAASALHAGVPSRFSGSGSGTHFTLTISSLQPEDVATYYCQNYNSAPLTFGGGTKVEIK
B3: antibody 16F6 (antibody, V domains shown)
VH: EVQLVESGGGLVTPGGSLKLSCAASGFAFNYYDMFWVRQNTEKRLEWVAYINSGGGNTYYPDTVKGRFTISRDNAKKTLFLQMSSLRSEDTAMYYCARQLYGNSFFDYWGQGTSLTVSA
VL: DIVMTQSHKFMSTSVGDRVTITCKASQDVTTAVAWYQQKPGHSPKLLIYWASTRHTGVPDRFTGSGSGTDFTLTLNSVQAEDLALYYCQQHYSTPLTFGAGTKLELK
B4: antibody 232L (antibody, V domains shown)
VH: KSQLVESGGGLVQPGGSLRLSCAASGFTFDAYAMHWVRQAPGEGLEWVTAISWSGSSTYYADSVKGRFTFSRDNAKNSLYLEMNSLRADDTAFYYCVKGGVYNWFDVWGPGVLVTVSS
VL: QSVLTQPPSVSGAPGQRVTISCTGSRSNIGGYYVSWYQQFPGTTPKLLIYQDNKRPSGVSDRFSGSKSGTSASLTITGLQTEDEADYYCLSYDSSLNGWVFGGGTRLTVL
B5: antibody 380L (antibody, V domains shown)
VH: EVQLVESGGGLVQPGGSLTLSCAASGFTFGDYVMHWVRQVPGRGLEWLSAVSWSGYTTYSADSVKGRFTISRDNAKNSLYLQMSRLGTADTGLYYCVTLIGAIGIRDSFDAWGRGVLVTVSS
VL: QSVLTQPPSMSGAPGQRVTVSCTGSSSNIGAGNYVQWYQQLPGTAPKVLIYQTDKRPSGISDRFSGSKSGTSASLTISGLQSEDEADYYCQVYDSSLNGWVFGGGTRLTVL
notes: also called 380L mAb; mAb 380L

Tests used:
[1] = biological target: T1, mucin domain-deleted Zaire GP (GPdMuc) (Ebola (Zaire) virus (EBOV), UniProt Q05320 33-632); assay: BLI competition on Zaire GPdMuc (upper table); competitor 13C6
T1 construct: also called Zaire GPdMuc; GP(Z)dMuc

[2] = biological target: T1, mucin domain-deleted Zaire GP (GPdMuc); assay: BLI competition on Zaire GPdMuc (upper table); competitor KZ52
[3] = biological target: T1, mucin domain-deleted Zaire GP (GPdMuc); assay: BLI competition on Zaire GPdMuc (upper table); competitor 380L
[4] = biological target: T2, mucin domain-deleted Sudan GP (GPdMuc) (Sudan virus (SUDV), UniProt Q7T9D9 33-632); assay: BLI competition on Sudan GPdMuc (lower table); competitor 15H10
T2 construct: also called Sudan GPdMuc; GP(S)dMuc

[5] = biological target: T2, mucin domain-deleted Sudan GP (GPdMuc); assay: BLI competition on Sudan GPdMuc (lower table); competitor mAb166
[6] = biological target: T2, mucin domain-deleted Sudan GP (GPdMuc); assay: ELISA on coated GP
[7] = biological target: T1, mucin domain-deleted Zaire GP (GPdMuc); assay: ELISA on coated GP
[8] = biological target: T1, mucin domain-deleted Zaire GP (GPdMuc); assay: BLI competition on Zaire GPdMuc (upper table); competitor 15H10
[9] = biological target: T1, mucin domain-deleted Zaire GP (GPdMuc); assay: BLI competition on Zaire GPdMuc (upper table); competitor mAb114
[10] = biological target: T3, mucin domain-deleted Zaire GP (GPdMuc) (Ebola (Zaire) virus (EBOV), UniProt Q05320 33-632); assay: BLI competition on Zaire GPdMuc (upper table); competitor 13C6
[11] = biological target: T3, mucin domain-deleted Zaire GP (GPdMuc); assay: BLI competition on Zaire GPdMuc (upper table); competitor KZ52
[12] = biological target: T3, mucin domain-deleted Zaire GP (GPdMuc); assay: ELISA on coated GP
[13] = biological target: T3, mucin domain-deleted Zaire GP (GPdMuc); assay: BLI competition on Zaire GPdMuc (upper table); competitor 316L
[14] = biological target: T3, mucin domain-deleted Zaire GP (GPdMuc); assay: BLI competition on Zaire GPdMuc (upper table); competitor 380L
[15] = biological target: T3, mucin domain-deleted Zaire GP (GPdMuc); assay: ELISA on coated GP; remark: listed apart in the source
[16] = biological target: T3, mucin domain-deleted Zaire GP (GPdMuc); assay: BLI competition on Zaire GPdMuc (upper table); competitor 15H10
[17] = biological target: T4, mucin domain-deleted Sudan GP (GPdMuc) (Sudan virus (SUDV), UniProt Q7T9D9 33-632); assay: ELISA on coated GP
[18] = biological target: T4, mucin domain-deleted Sudan GP (GPdMuc); assay: BLI competition on Sudan GPdMuc (lower table); competitor 15H10
[19] = biological target: T4, mucin domain-deleted Sudan GP (GPdMuc); assay: BLI competition on Sudan GPdMuc (lower table); competitor mAb166
[20] = biological target: T4, mucin domain-deleted Sudan GP (GPdMuc); assay: ELISA on coated GP; remark: listed apart in the source
[21] = biological target: T2, mucin domain-deleted Sudan GP (GPdMuc); assay: ELISA on coated GP; remark: listed apart in the source
[22] = biological target: T1, mucin domain-deleted Zaire GP (GPdMuc); assay: ELISA on coated GP; remark: listed apart in the source
[23] = biological target: T2, mucin domain-deleted Sudan GP (GPdMuc); assay: ELISA on coated GP (EC50)
[24] = biological target: T1, mucin domain-deleted Zaire GP (GPdMuc); assay: BLI competition on Zaire GPdMuc (upper table); competitor 316L

Row | Binder | % inhibition of binding [1] [%] | % inhibition of binding [2] [%] | % inhibition of binding [4] [%] | % inhibition of binding [5] [%] | EC50 [6] [µg/mL] | EC50 [7] [µg/mL] | % inhibition of binding [8] [%] | % inhibition of binding [9] [%] | further results
1 | B1 | 98 | 13 | 14.5 | 80 | 0.0272 | 0.0124 | 26 | 100 | % inhibition of binding [3]: 92%
2 | B2 |  |  |  |  |  |  |  |  | % inhibition of binding [10]: 92%; % inhibition of binding [11]: 10%; EC50 [12]: 0.007 µg/mL; % inhibition of binding [13]: 96%; % inhibition of binding [14]: 95%; EC50 [15]: 0.00904 µg/mL; % inhibition of binding [16]: 3%
3 | B3 |  |  |  |  |  |  |  |  | EC50 [17]: 0.05 µg/mL; % inhibition of binding [18]: 7.8%; % inhibition of binding [19]: 0.2%; EC50 [20]: 0.0558 µg/mL
4 | B4 |  |  |  |  |  |  |  |  | EC50 [21]: > 10 µg/mL; EC50 [22]: 0.08 µg/mL; EC50 [23]: > 10 µg/mL
5 | B5 | 97 | 13 | 3.6 | 81.9 | 0.0238 | 0.012 | 24 | 100 | % inhibition of binding [24]: 93%
